Patent publication US20210079074A1

How the values were obtained:
[1] = target: FcγRIIIa receptor (V158 variant) (UniProt P08637); assay: cell-based or functional assay
[2] = target: FcγRIIa receptor (H131 variant) (UniProt P12318); assay: cell-based or functional assay
Chain of FcγRIIa receptor (H131 variant) (P12318 34-317 limits assumed, change not shown): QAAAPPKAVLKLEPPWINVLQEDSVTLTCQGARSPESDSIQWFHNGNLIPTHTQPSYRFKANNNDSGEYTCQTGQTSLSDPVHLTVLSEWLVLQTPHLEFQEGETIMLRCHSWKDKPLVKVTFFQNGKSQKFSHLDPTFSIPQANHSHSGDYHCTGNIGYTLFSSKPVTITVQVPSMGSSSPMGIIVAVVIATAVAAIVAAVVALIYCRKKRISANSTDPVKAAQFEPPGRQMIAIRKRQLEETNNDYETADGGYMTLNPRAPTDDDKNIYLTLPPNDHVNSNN

Chain of FcγRIIIa receptor (V158 variant) (P08637 other isoform, or with tags, fused parts or gaps mutant limits assumed): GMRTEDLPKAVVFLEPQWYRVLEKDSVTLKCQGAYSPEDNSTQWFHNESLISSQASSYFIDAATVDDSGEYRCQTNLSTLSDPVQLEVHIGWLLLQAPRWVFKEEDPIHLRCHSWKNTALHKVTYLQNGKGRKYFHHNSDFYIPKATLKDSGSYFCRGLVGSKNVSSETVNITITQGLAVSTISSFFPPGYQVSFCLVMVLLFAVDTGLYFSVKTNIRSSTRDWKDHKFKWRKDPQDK

Q: What does the source list for isotype control antibody?
A: luminescence, ADCC reporter, 3.048316 ng/mL [1]: 314; luminescence, ADCC reporter, 9.144947 ng/mL [1]: 329; luminescence, ADCC reporter, 27.43484 ng/mL [1]: 340; luminescence, ADCC reporter, 82.30453 ng/mL [1]: 377; luminescence, ADCC reporter, 246.9136 ng/mL [1]: 381; luminescence, ADCC reporter, 740.7407 ng/mL [1]: 379; luminescence, ADCC reporter, 2,222.222 ng/mL [1]: 373; luminescence, ADCC reporter, 6,666.667 ng/mL [1]: 431; luminescence, ADCC reporter, 20,000 ng/mL [1]: 399; luminescence, ADCP reporter, 3.048316 ng/mL [2]: 45; luminescence, ADCP reporter, 9.144947 ng/mL [2]: 52; luminescence, ADCP reporter, 27.43484 ng/mL [2]: 42; luminescence, ADCP reporter, 82.30453 ng/mL [2]: 41; luminescence, ADCP reporter, 246.9136 ng/mL [2]: 54; luminescence, ADCP reporter, 740.7407 ng/mL [2]: 60; luminescence, ADCP reporter, 2,222.222 ng/mL [2]: 57; luminescence, ADCP reporter, 6,666.667 ng/mL [2]: 49; luminescence, ADCP reporter, 20,000 ng/mL [2]: 83
